Results as given in publication PMC6412877, “Novel Site-Specific Fatty Chain-Modified GLP-1 Receptor Agonist with Potent Antidiabetic Effects” (Molecules, 2019).

What was measured:
Mouse GLP-1R (mouse) = Mouse GLP-1R (mouse) (UniProt O35659)
Human GLP-1R (human) = Human GLP-1R (human) (UniProt P43220)
Human GLP-1R (human), sequence (P43220 24-463): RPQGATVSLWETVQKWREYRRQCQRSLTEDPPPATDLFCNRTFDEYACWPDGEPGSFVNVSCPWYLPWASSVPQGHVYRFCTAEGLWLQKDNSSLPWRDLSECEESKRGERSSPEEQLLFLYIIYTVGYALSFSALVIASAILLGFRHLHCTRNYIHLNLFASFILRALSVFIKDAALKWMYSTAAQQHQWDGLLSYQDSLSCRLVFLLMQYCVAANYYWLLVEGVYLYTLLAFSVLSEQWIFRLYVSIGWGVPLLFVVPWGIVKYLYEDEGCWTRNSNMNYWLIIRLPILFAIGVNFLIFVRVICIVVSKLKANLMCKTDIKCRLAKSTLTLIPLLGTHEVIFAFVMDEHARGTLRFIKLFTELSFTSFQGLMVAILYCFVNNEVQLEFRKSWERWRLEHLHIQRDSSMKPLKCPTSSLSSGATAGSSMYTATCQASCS

Mouse GLP-1R (mouse), sequence (O35659 22-463): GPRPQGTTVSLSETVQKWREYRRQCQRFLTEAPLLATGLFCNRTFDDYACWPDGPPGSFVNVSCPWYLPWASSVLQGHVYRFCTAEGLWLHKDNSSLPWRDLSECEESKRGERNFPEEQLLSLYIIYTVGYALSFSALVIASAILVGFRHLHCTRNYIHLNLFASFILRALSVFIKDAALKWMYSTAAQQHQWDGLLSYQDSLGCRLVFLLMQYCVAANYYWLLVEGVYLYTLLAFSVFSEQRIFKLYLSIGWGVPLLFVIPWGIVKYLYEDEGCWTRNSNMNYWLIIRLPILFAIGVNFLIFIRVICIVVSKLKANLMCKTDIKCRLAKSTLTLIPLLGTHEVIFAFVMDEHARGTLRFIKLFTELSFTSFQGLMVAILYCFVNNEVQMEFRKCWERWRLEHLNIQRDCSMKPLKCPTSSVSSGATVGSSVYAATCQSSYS

Substance: Liraglutide (peptide)
- EC50 (nM), Mouse GLP-1R activation, in vitro cell assay (Mouse GLP-1R (mouse)): 0.185 nM
- Emax (%), Mouse GLP-1R activation, in vitro cell assay (Mouse GLP-1R (mouse)): 89%

Substance: Exendin-4 (from UniProt P26349 48-87) (peptide)
- EC50 (nM), Human GLP-1R activation, in vitro cell assay (Human GLP-1R (human)): 0.052 nM
- Emax (%), Mouse GLP-1R activation, in vitro cell assay (Mouse GLP-1R (mouse)): 100%
